Data as given in patent publication US11198713B2, “Agents modulating beta-catenin functions and methods thereof” (FOG PHARMACEUTICALS, INC., priority 2017, dated 2021).
Bridge positions count the residues as written; N and C are the ends. Square brackets hold non-standard residues; d marks the D form. Primed or numbered codes have the meaning given here. Peptide text beside a SMILES is read from it. * marks the point of attachment. MB(12) = Monomer B (PyrS), pyrrolidine stapling residue with N-allyl carbamate; MC(3) = Monomer C (PyrR), pyrrolidine stapling residue with N-allyl carbamate; MI = Monomer I = ReN, acyclic amine-bearing olefin stapling residue; R8 = C=CCCCCCC[C@@](C)(N)C(=O)O; S8 = C=CCCCCCC[C@](C)(N)C(=O)O; R5 = C=CCCC[C@@](C)(N)C(=O)O; Nle = CCCC[C@H](N)C(=O)O; Hex = hexyl, CCCCCC*; Octyl = CCCCCCCC*

What was measured:
[1] = test system: TCF/LEF Luciferase reporter HEK293 cell lines; test: TCF/LEF reporter assay; format: cell-based; conditions: Table 2
Procedure: FIG. 2. […] FIG. 2 depicts exemplary data from TCF/LEF reporter assays. Y-axes illustrate luminescence, and X-axes illustrate concentrations of peptides. […] TCF/LEF Luciferase reporter HEK293 cell lines (BPS Bioscience) were treated with dilution series of FP0025c and FP00217c Isomer 2 for 18 hours. 300 ng/mL of Wnt3a (Peprotech) was added to the cells for the final 6 hours of incubation. Luciferase activity was measured using Bright-Glo Luciferase Assay (Promega) according to manufacturer's protocol.
In some embodiments, a provided assay is a TCF/LEF reporter assay. In some embodiments, in an exemplary such assay, TCF/LEF Luciferase reporter HEK293 cell lines (BPS Bioscience) were treated with dilution series of provided peptides for 18 hours. 300 ng/mL of Wnt3a (Peprotech) was added to the cells for the final 6 hours of incubation. Luciferase activity was measured using Bright-Glo Luciferase Assay (Promega) according to manufacturer's protocol. […] Applicant also notes that teachings of the present disclosure are not restricted to a particular mechanism of action of described agents.

full-length beta-catenin [2] = target: T1, full-length beta-catenin (UniProt P35222 2-781, limits assumed); test: competition FP, grade of FP EC50 (+: 500-5000 nM); competition FP vs FITC probe, 15 nM full-length beta-catenin, peptide diluted from 5 µM; grade + (500-5000 nM EC50)
T1 construct: mature; also called full-length ß-Catenin; β-catenin
T1 sequence (looked up): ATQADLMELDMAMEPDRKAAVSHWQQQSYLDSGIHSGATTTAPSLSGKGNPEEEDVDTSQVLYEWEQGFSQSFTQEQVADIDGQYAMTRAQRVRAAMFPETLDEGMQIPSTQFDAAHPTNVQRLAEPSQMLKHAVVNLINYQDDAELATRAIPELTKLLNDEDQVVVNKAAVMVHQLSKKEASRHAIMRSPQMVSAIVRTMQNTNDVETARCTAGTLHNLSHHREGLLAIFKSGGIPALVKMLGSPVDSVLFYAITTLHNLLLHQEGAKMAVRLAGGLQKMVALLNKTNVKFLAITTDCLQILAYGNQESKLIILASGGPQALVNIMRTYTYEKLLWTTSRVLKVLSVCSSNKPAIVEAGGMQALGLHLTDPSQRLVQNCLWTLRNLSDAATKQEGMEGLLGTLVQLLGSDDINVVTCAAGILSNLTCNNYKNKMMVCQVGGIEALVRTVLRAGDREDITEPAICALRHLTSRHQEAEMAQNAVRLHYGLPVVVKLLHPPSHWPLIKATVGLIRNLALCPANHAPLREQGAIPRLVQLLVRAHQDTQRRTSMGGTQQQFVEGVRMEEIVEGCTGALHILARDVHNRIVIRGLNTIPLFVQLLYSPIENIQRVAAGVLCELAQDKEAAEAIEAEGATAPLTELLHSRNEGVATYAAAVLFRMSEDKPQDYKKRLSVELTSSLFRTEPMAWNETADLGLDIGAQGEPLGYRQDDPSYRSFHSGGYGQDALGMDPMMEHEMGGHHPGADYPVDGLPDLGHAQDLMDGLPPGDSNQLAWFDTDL
Procedure: (§1) In some embodiments, a competition fluorescence polarization assay is used to assess binding of provided compounds to beta-catenin. In an exemplary procedure, solutions of provided compounds, e.g., provided stapled peptides, were prepared in a buffer (e.g., 50 mM Tris pH 8.0, 250 mM NaCl, 2% glycerol, 0.5 mM EDTA, 0.02% w/v sodium azide) using a 3-fold serial dilution from 5 µM. Probe solution (15 nM full-length ß-Catenin, 20 nM FITC labeled peptide in buffer) was prepared and incubated for a period of time, e.g., 5 minutes, and the a volume, e.g., 40 µL per well plated in suitable plate, e.g., a black polystyrene 384-well plate (Corning). Equal volume of the serial diluted peptide was added to the plate and incubated protected from light for 15 minutes prior to read. Reads were performed on a Spectramax M5 (Molecular Devices) in duplicate. Suitable probe was FITC-PEG1-PQ-S5-ILD-S5-HVRRVWR (SEQ ID NO: 1) (hydrocarbon staple formed by two S5 via olefin metathesis) and/or FITC-bA-PQ-S5-ILD-S5-HVRRVWR (SEQ ID NO: 3) (hydrocarbon staple formed by two S5 via olefin metathesis). […] Another peptide, FPO217c (Ac-AR_8ILDAHIM$B5$RVW (SEQ ID NO: 280), with N-terminal proline removed and valine replaced with isoleucine compared to FP0025c) was prepared.

[3] = target: T2, biotinylated beta-catenin (UniProt P35222 134-665, limits assumed, biotinylated (site not stated)); test: Table 3 'Binding Kd (nM)'; method not stated there (SPR in Example 2)
T2 construct: also called beta-catenin (SPR); armadillo domain of β-catenin
T2 sequence (looked up): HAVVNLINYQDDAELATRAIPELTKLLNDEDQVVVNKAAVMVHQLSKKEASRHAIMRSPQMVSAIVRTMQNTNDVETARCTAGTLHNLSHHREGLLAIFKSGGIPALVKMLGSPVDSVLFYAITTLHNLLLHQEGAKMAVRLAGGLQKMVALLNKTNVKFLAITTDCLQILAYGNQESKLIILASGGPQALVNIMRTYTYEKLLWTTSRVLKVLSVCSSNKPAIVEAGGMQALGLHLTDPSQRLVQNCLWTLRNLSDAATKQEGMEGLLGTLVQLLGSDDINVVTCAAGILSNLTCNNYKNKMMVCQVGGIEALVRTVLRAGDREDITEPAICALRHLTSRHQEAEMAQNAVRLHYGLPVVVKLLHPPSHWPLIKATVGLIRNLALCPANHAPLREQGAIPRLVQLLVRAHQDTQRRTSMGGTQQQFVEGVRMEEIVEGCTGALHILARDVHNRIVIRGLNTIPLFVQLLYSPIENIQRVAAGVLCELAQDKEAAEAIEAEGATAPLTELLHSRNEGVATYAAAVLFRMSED
Procedure: (§2) Additionally or alternatively, binding to beta-catenin may be measured by Surface Plasmon Resonance. In an exemplary assay, approximately 6 nmol dried peptide diluted in buffer (50 mM Tris pH 8.0, 300 mM NaCl, 2% glycerol, 0.5 mM TCEP, 0.5 mM EDTA, 0.005% Tween-20, 1 mg/mL CM Dextran, 0.02% w/v sodium azide) was assayed on a Biacore X100 using the Biacore Biotin CAPture Kit (GE Healthcare) and biotinylated beta-catenin. Results were analyzed using the Biacore X100 Evaluation Software.

[4] = target: T2, biotinylated beta-catenin; test: SPR (Biacore, biotinylated beta-catenin)
Procedure: as §2

full-length beta-catenin [5] = target: T1, full-length beta-catenin; test: Axin competition fluorescence polarization; 15 nM full-length beta-catenin, 20 nM FITC-StAx-33 probe displaced by titrated peptide
full-length beta-catenin [6] = target: T1, full-length beta-catenin; test: competition FP, grade of FP EC50 (+++: <=100 nM)
Procedure, shortened: (§3)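 Compound 3-fold serially diluted from 5 µM in Tris pH 8.0, 250 mM NaCl buffer, added to premixed 15 nM full-length β-catenin and 20 nM FITC-labelled stapled axin-site peptide probe. Incubated 15 min in the dark, polarization read in duplicate.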

full-length beta-catenin [7] = target: T1, full-length beta-catenin; test: competition FP, grade of FP EC50 (+: 500-5000 nM)
Procedure, shortened: as §3

full-length beta-catenin [8] = target: T1, full-length beta-catenin; test: competition FP; amino staple (acyclic)
Procedure: as §1

Ac-P-A-MC-I-L-D-A-H-V-S8-R-V-W-NH2 (Ac-PA[MC(3)]ILDAHV[S8]RVW-NH2; staple 3-10) [FP0099]
TCF/LEF Reporter Inhibition at 10 μM [1]: 38%

CCCC[C@H](NC(=O)[C@@H](NC(=O)[C@H](CCCNC(=N)N)NC(=O)[C@H](CCC(N)=O)NC(=O)[C@@H](NC(=O)[C@H](Cc1c[nH]cn1)NC(=O)[C@H](CCC(=O)O)NC(=O)[C@H](CC(=O)O)NC(=O)[C@H](CC(C)C)NC(=O)[C@@H](NC(=O)[C@H](CO)NC(=O)[C@H](CCC(=O)O)NC(=O)[C@@H]1CCCN1C(C)=O)[C@@H](C)CC)C(C)C)C(C)C)C(=O)N[C@@H](CCCCN)C(N)=O [FP0110, Ac-P-E-S-I-L-D-E-H-V-Q-R-V-nL-K-NH2] (Ac-PESILDEHVQRV[Nle]K-NH2)
TCF/LEF Reporter Inhibition at 10 μM [1]: 19%

Hex-P-A-R8-I-L-D-A-H-V-MB-R-V-W-NH2 (Hex-PA[R8]ILDAHV[MB(12)]RVW-NH2; staple 3-10) [FP0325c]
TCF/LEF Reporter Inhibition at 10 μM [1]: 73%

CC[C@H](C)[C@H](NC(=O)[C@H](CO)NC(=O)[C@H](C)NC(=O)[C@@H]1CCCN1C(C)=O)C(=O)N[C@@H](CC(C)C)C(=O)N[C@@H](CC(=O)O)C(=O)N[C@@H](C)C(=O)N[C@@H](Cc1c[nH]cn1)C(=O)N[C@H](C(=O)N[C@@H](CCC(N)=O)C(=O)N[C@@H](CCCNC(=N)N)C(=O)N[C@H](C(=O)N[C@@H](Cc1c[nH]c2ccccc12)C(N)=O)C(C)C)C(C)C [FP0098, Ac-P-A-S-I-L-D-A-H-V-Q-R-V-W-NH2] (Ac-PASILDAHVQRVW-NH2)
TCF/LEF Reporter Inhibition at 10 μM [1]: 18%

0ct-P-A-R8-I-L-D-A-H-V-MB-R-V-W-1NH2 (Octyl-PA[R8]ILDAHV[MB(12)]RVW-NH2; staple 3-10) [FP0324c]
TCF/LEF Reporter Inhibition at 10 μM [1]: 51%

AXILDAHIXRVW (not fully specified; Ac-A-MI-I-L-D-A-H-I-S5-R-V-W-NH2; amino staple MI/S5) [FP0506a]
FP EC50 (full-length beta-catenin [2]): 500 to 5000 nM

AXILDAHIXRVW (not fully specified; Ac-A-MG-I-L-D-A-H-I-MB-R-V-W-NH2; carbamate staple MG/MB) [FP0597c]
Kd [3]: 4 nM
Kd [4]: 4 nM
EC50 (read off the curve) (full-length beta-catenin [5]): ~0.06 µM
FP EC50 (full-length beta-catenin [6]): ≤ 100 nM

B1: FP0777a (peptide)
peptide: Ac-PQ[R5]ILD[MI]HVRRVWR-NH2
modifications: staple 3-7; also: amino staple (-N(R')-), from carbamate staple by metathesis then Pd(0) CO2 extrusion
notes: also called FP-0777 (amino staple)
FP EC50 (full-length beta-catenin [7]): 500 to 5000 nM
EC50 (full-length beta-catenin [8]): 4.75 µM
